# Measurements taken from a protein production outcome set (Wang et al. 2014).
# Assay: label from the status in PepcDB records
row,Sequence,protein production
1,MFHAAFMEERVFSDRGSMRNACSSIEYDGCRQGQSGPLLEEKEVKRKLFGALALVAMLAAPALAEAATRGFATANVNMRSGPSTAYPAVVVIPVGAPLTVHGCLSDTPWCDVSFVNGRGWVAGRYIQTTFRQNRVYVEPRYYRDLGVPVITFEAGRYWDRYYRDRDFYRERDRWRRPPPSGGYWNAPPPSAGWDRPRPRDDWRDGRRDDGRRDEWRDPRQGGPNDGRWERRYGDWNQGDRNQDRPRRDDDRRRWEDENRDRNRDRDSNRDGNRDRPQNQYDGQRGQLEGQPRPPAPAPDAPLQGCIIGSPGCAQRLEHHHHHH,not failed
2,MYGISVFLGEEITNDTIIYIKKMKALGFDGIFTSLHIPEDDTSLYRQRLTDLGAIAKAEKMKIMVDISGEALKRAGFSFDELEPLIELGVTGLRMDYGITIEQMAHASHKIDIGLNASTITLEEVAELKAHQADFSRLEAWHNYYPRPETGIGTTFFNEKNRWLKELGLQVFTFVPGDGQTRGPIFAGLPTLEKHRGQNPFAAAVGLMADPYVDAVYIGDPTISERTMAQFGYYHQTNQFLLEVAPSESRYLKRILGTHTNRLDAARDVLRSELSRTSEMFRKDEIATIESEQTEARPVGTVTIDNEKYGRYMGEIQVTLVDLPKDEKVNTITRIIEKDQTILPLIKAGNQFTLVTEGTIENEFRKLNN,not failed
3,MYGRKGYQLIKDFATGEKGQLKPFNSKLFDETIEECDQNHHLIQSLIRKMQQEGLDVQNNRNADHYGALIHHLALIRNKRCLMAYVYNRAEIVRDLAWRVGLELLDLPSEIQEKLTTLEKEYFKNHSVALKSYMGKVGIELNVDMVPPKDPYIKVRILDDIDEGIVLSDKTTNFARHSMHFLKRTDAEPYIARGQMEELTG,failed
4,MTNIFASWGLIKLEIVRALRNRKFLFFSVIYPSALFLLIAGSADSTTKVEGTGLSLPTFFMVSMASFGALTAVLMGNSERIAKERESGWVRQLRLTTLPGRGYVLAKTASAAVISLPSILIVFVVAAAVKNVRLDAWQWLALTGTIWVGSLVFAALGVAIGYLATGDAVRPITMIVYFGLSMLGGLWMPTTTFPDWLQSIAKWLPTHAYAALGQAIELGNAPQAKDIAILAVSFVLFAGGAAWLYRKDTLKA,failed
5,MKGWKRNLYILVVCQFLVVSAMTMIIPFLPLYLQELGVTDPSEVSLWAGIIFAANFLTAFLFSPLWSRLADRYGRKMMILRSGFGMALIIGLTGFAQGPLSLLCLRLLNGVISGFIPASIGLVATNTPKEKAGYALGFLQAGAVSGGICGPLIGGIMAQAFGYRMIFFLTGLCIFIAALVVLLFVNEQFTPNPKEEKTNTWGEFKKITAIRPIFSLYVVVFLIQFAVMGVNPLISLFVEELVSGVNVALFAGLAISATGFANMLSSMQLGKLSDKAGAHHVLFFCLLGTVIFMIPQAFVQQLWQLIVLRFFVGLSLGGLLPAANALVRMHAPKGMESRTYGFSTSALYLGNMVGPTVGGAVVATVGIRGLFLISAFTLLLTVWIVKGKVMPASDKQFRYEQNERKIASS,failed
6,MRQSYRTPLLASLLVLICAVVLWNAYEWFQGRYLRAFSEHTAMFSGDPLQLPAELAGPGAIRLVHFWDPACPCNVGNQQHLAELIEAYSPRGVEFYAVQKPGSHGQLPATLSRLKHLDSLPGAEQIPASPAVAIWDRNGKLAYFGPYSEGLTCNSSNSFIEPILQALEDNRPVSATHTLAIGCYCPWPA,failed
7,MIKEWATVVSWQNGQAVVSCDVKASCSSCASRAGCGSRVLNKLGPQTTHTIVVPSAEPLAPGQKVELGIAEKSLLGSALLVYMSPLAGLFLCAALFQMLFGSDLAALSGAVLGGVGGFLVARGYSRKLAERDAWQPVILNVALPPDLVRVETTSIETRQ,failed
8,MSSDAIETIETYLRPGAWVEDAAGPLYVRLRKRIEQGIDSGLLAKSAPLPAEREIASLTGLSRVTVRRAMQELVDRGIIVQRQGSGSFVADAAPRVEQSLSHLTSFTEDMERRGLNVTSEWLTRGVFIPSPEEVMALALSSGEQVARVARLRRAEGRPMAIERASLPTDILPDPELVSSSLYAVLERDGNRPVRALQRISAVNLGAEDAALLGVEPGTAGLRIIRTSYLPNRRVIEYTRSLYRADAYDFVAELRLGNS,failed
9,MTLPRRSGIRALPARGPTMESILGSFLLVAASEMGDKTQLLAFSLATRFRKPWPIMAGILVATLANHGLASSLGAWISANVPARMLAGVLALTFLMFGLWTLRPDSLEASKGPERFGAFLTTTVLFFLAEMGDKTQLATVALAARYGDVIRVTAGTTLGMLAADGLAVFLGEKLAARVSSARIRWAAAGLFFLFGLISAWAAIFG,failed
